Test: yeast display, Sf9 membrane polyspecificity reagent, FACS + sequencing; frameworks hold sequencing errors
In short: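 Using colony PCR, genes from sorted yeast display clones were amplified, then sequenced on MiSeq at 2 × 250 and filtered by CDR length. The clones had been stained with 10% biotinylated, detergent-solubilized Sf9 membrane reagent for 1 hour at 4 °C and sorted by FACS into low and high (top ~1%) gates on anti-HA and streptavidin fluorescence. Polyreactivity labels come from the gate of origin.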

Row | Sequence | polyreactivity (PSR sort gate)
1 | QVQLVESGGGLVQAGGSLRLSCAASGRIFYGYTMGWYRQAPGKERELVAAISWSGGSTSYADSVKGRFTISRDNAKNTVYLQMNSLKPEDTAVYYCDVRYPGYRLYWGYTYDYWGQGTQVTVSS | high polyreactivity
2 | QVQLVESGGGLVQAGGSLRLSCAASGRIFYHNVMGWYRQAPGKERELVAGIRSRGGSTSYADSVKGRFTISRDNAKNTVYLQMNSLKPEDTAVYYCATDTTLWYVLYDYWGQGTQVTVSS | low polyreactivity
3 | QVQLVESGGGLVQAGGSLRLSCAASGRIFYINAMGWYRQAPGKERELVAAITEGGVSTYYADSVKGRFTISRDNAMNTVYLQMNSLKPEDTAVYYCNTTGGTDGIVIYEYWGQGTQVTVSS | low polyreactivity
4 | QVQLVESGGGLVQAGGSLRLSCAASGRIFYINAMGWYRQAPGKERELVAAITGGDGSTTYADSVKGRFTISRDNAKNTVYLQMNSLKPEDTAVYYCNAVTARKYAESQFDHWGQGTQVTVSS | low polyreactivity
5 | QVQLVESGGGLVQAGGSLRLSCAASGRIFYIYAMGWSRQAPGKERELVASITSSGTSTYADSVKGRFTISRDNAKNTVYLQMNSLKPEDTAVYYCNARGYPKSWRYSRGYEYWGQGTQVTVSS | low polyreactivity
6 | QVQLVESGGGLVQAGGSLRLSCAASGRIFYKYAMGWYRPAPGKERELVASITRSGTSTDYADSVKGRFTISRDNAKNTVYLQMNSLKPEDTADYYCAKRFFSLNGYGYDYWGLGTQVTVSS | high polyreactivity
7 | QVQLVESGGGLVQAGGSLRLSCAASGRIFYKYAMGWYRQAPGKERELVAAISYSGGSTYYADSMKGRFTLSRDNAKNTVYLQMNSLTPEDTAVYYCATRRREAGIEYDYWGQGTQVTVSS | high polyreactivity
8 | QVQLVESGGGLVQAGGSLRLSCAASGRIFYLKAMGWYRQAPGTERELVAAINTSGDSTYYADSVKGRFTISRDNAKNTVDLQMNSLKPEDTAVSYCAAYVIGPDQFIYDYWGQGTQVTVSS | low polyreactivity
9 | QVQLVESGGGLVQAGGSLRLSCAASGRIFYLNVMGWYRQAPGKERELVAAITRRDVTTYADSVKGRFTISRDNAKNTVYLQMNSLKPEDTAVYYCNAVYYNWIGFDYWGQGTQVSVSS | low polyreactivity
10 | QVQLVESGGGLVQAGGSLRLSCAASGRIFYLYAMGWYRQAPGKERELVAAISRSGGSTYYADSVKGRFTISRDNAKNTVYLQMNSLKPEDTAVYYCNTVWYFSSRTRLHDYWGQGTQVTVSS | high polyreactivity
11 | QVQLVESGGGLVQAGGSLRLSCAASGRIFYLYVMGWYRQAPGKERELVAAISIGSTTNYADSVKGRFTISRDNAKNTVYLQMNSLKPEDTAVYYCNARDGPPFYDYWGQRTQVTVSS | low polyreactivity
12 | QVQLVESGGGLVQAGGSLRLSCAASGRIFYMNAMGWYRQAPGKERELVAGITNSTTGTYYADSVKGRFTISRDNAKNTVYLQMNSLKPEDTAVYYCNTDVAYEEPVETYDYWGQGTQVTVSS | low polyreactivity
13 | QVQLVESGGGLVQAGGSLRLSCAASGRIFYNAMGWYRQAPGKERELVAAITSNGGSTYYADSVKGRFTISRDNAKNTVYLQMNSLKPEDTAVYYCNAAIRYTASATHAFDYWGQGTQVTVSS | low polyreactivity
14 | QVQLVESGGGLVQAGGSLRLSCAASGRIFYNYAMGWYRQAPGKERELVAAISGSGGSTYYADSVKGRFTISRDNAKNSVYLQMNSLKPEDTAVYYCSTSGPQYYSRNFDYWGQGTQVTVSS | low polyreactivity
15 | QVQLVESGGGLVQAGGSLRLSCAASGRIFYNYAMGWYRQAPGKERELVAAITGGASTYADSVKGRFTISRDNAKNTVYLQMNRLKPEDTAVYYCAVDYYTYSLASGRTRMDYWGQGTQVTVSS | high polyreactivity
16 | QVQLVESGGGLVQAGGSLRLSCAASGRIFYNYAMGWYRQAPGKERELVAAITRRAGRTYYADSVKGRFTISRDNAKNTVYLQMNSLKPEDTAVFYCAKDEPGSSRVLYDYWGQVTQVTVSS | low polyreactivity
17 | QVQLVESGGGLVQAGGSLRLSCAASGRIFYNYDMGWYRQAPGKERELVAAITSGGNTYADSVKGRFTISRDNAKNTVYLQMNSLKPEDTAVYYCNARDKFYVPSQYAYDYWGQGTQVTVSS | low polyreactivity
18 | QVQLVESGGGLVQAGGSLRLSCAASGRIFYNYGLGWYRQAPGKERELVARITTGGRTNYADSVKGRFTMSRDNAKNTVYLQMNSLKPEDTAVYYCNADGYHSRWYYYNYDYWGQGTQVTVSS | low polyreactivity
19 | QVQLVESGGGLVQAGGSLRLSCAASGRIFYNYSMGWYRQAPGKEREVVAAISGSGGSTYYADSVKGRFTISRDNAKNTVYLQMNSLKPEDTAVYYGSTSGGQYYSRNFEYWGQGTQVTVSS | low polyreactivity
20 | QVQLVESGGGLVQAGGSLRLSCAASGRIFYNYVMGWYRQAPGKERELVAAISDSGGSTYYADSVKGRFTISRDNAKNTVYLQMNSLKPEDTAVYYCNKVRPRKFWDYYYWGQGTQVTVSS | high polyreactivity
21 | QVQLVESGGGLVQAGGSLRLSCAASGRIFYPNAMGWYRQAPGKERELVAAISSGGRTNYADSVKGRFTISRDNAKNTVYLQMNSLKPEDNAVYYCAARDRSQYTSTYAFGGGYWGHGTQVTVSS | low polyreactivity
22 | QVQLVESGGGLVQAGGSLRLSCAASGRIFYPNGMGWYRQAPGKERELVAAITGSGGSTYYADSVKGRFTISRDNAKNTVYLQMNSLIPEDTAVYYCAATWRYYLYPLGPHEFDYWGQGTQVTVSS | low polyreactivity
23 | QVQLVESGGGLVQAGGSLRLSCAASGRIFYPYAMGGYRQAAGKEREFVAAISSGVSTNYADSVTGRFTISRDNATTTVYLQMNSLKPEDTAVYYCARSYFRYASSYYQAVSHGYSGQGTQVTVSS | high polyreactivity
24 | QVQLVESGGGLVQAGGSLRLSCAASGRIFYPYAMGWYRQAPGKERELVAAISGSGARTYYADSVKGRFTISRDNAKHTVYLQMNSLKPEDTAVYYCARYQSNSDDYWGQGTQVTVSS | high polyreactivity
25 | QVQLVESGGGLVQAGGSLRLSCAASGRIFYPYAMGWYRQAPGKERELVAAITSDGGSTYYADSVKGRFTISRDNAKNTVYLQMNSLKPEDTAVYYCAAYEAYKANVGGGYYYWGQGTQVTVSS | low polyreactivity
26 | QVQLVESGGGLVQAGGSLRLSCAASGRIFYPYAMGWYRQAPGKESEFVAAIRWSSGSTYYADSVKGRFTISRDNAKNTVYLQMNSLKPEDTAVYYCAAEGYDSYSYDYWGQGTQVTVSS | high polyreactivity
27 | QVQLVESGGGLVQAGGSLRLSCAASGRIFYPYAMGWYRQAPGQERELVAVINGSGGSTYYADSVKGRFTISRDNAKNTVYLQMNSLKPEDTAVYYCAAVGAYSRNEYDYWGQGTQVTVSS | high polyreactivity
28 | QVQLVESGGGLVQAGGSLRLSCAASGRIFYPYVMGWYRQAPGKERELVAAITGGGSTYYADSVKGRFTISRDNAKNTVYLQMNSLKPEDTAVYYCAKRSYGDRDERYDSWGQGTQVTVSS | low polyreactivity
29 | QVQLVESGGGLVQAGGSLRLSCAASGRIFYQNVMGWYRQAPGKERELVAAITTSGGRTYYADSVKGRFTISRDNAKNTVYLQMNSLKPEDTAVYYCAAKASNRGYYYWGQGTQVTVSS | high polyreactivity
30 | QVQLVESGGGLVQAGGSLRLSCAASGRIFYQYAMGWYRQAPGKERELVAAIRYRDDGTYYADSVKGRFTISRDNAKNTVYLQMNSLKPEDTAVYYCAAKQWGRYGFWGQGTQVTVSS | high polyreactivity

From the nanobody polyreactivity screen of Harvey et al. (2022)
